Laboratory results from publication PMC6317155, “Identification of Small Peptides that Inhibit NADPH Oxidase (Nox2) Activation” (Antioxidants, 2018).

Experiments:
[1] = target: T1, aiPLA2 activity of recombinant human Prdx6 (Homo sapiens, UniProt P30041); assay: aiPLA2 (PLA2) activity of recombinant human Prdx6 in vitro, 3H-DPPC liposome substrate; type: biochemical; conditions: for Concentration of peptide for inhibition of aiPLA2 activity by 50%: concentration corrected for purity of the PIP preparation, Figure 2, n = 3; for Activity (aiPLA2 of recombinant hPrdx6), deletion from N-term: peptides deleted from N-terminus of 16-aa rat-derived SP-A peptide, no-peptide control 94.8, 3H-DPPC liposomes, 60 min; for Activity (aiPLA2 of recombinant hPrdx6), deletion from N-term / Activity (aiPLA2 of recombinant hPrdx6), human-derived peptides: one assay done in duplicate; for Activity (aiPLA2 of recombinant hPrdx6), human-derived peptides: deletions from 16-aa human-derived SP-A peptide, no-peptide control 92.0
T1 sequence (P30041 1-224): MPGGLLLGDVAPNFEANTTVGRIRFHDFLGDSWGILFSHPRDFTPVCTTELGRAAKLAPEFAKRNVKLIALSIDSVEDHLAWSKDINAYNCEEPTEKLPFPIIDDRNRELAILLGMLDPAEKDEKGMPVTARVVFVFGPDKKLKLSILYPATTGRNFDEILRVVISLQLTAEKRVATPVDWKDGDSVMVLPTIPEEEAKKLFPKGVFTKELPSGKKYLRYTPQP
Experimental: The PLA2 activity of Prdx6 was measured as described previously. The substrate was dipalmitoylphosphatidylcholine (DPPC) with ^3H-9,10-palmitate in the sn-2 position of DPPC incorporated into lung surfactant-like liposomes as described above; substrate was incubated with enzyme for 60 min and activity was calculated from the liberation of ^3H-palmitate as measured by scintillation counting.
The effect of the PIP peptides on the aiPLA2 activity of human recombinant Prdx6 was determined by in vitro assay; the effective concentration of inhibitor was corrected for purity of the PIP preparation. Saturating concentrations of all three peptides (PIP-1, PIP-2, PIP-3) inhibited aiPLA2 activity by ~70% (Figure 2). The basis for the remaining 30% of activity that was not inhibited is unclear.

[2] = target: T2, recombinant human peroxiredoxin 6 (Prdx6) (human) (UniProt P30041)
T2 sequence: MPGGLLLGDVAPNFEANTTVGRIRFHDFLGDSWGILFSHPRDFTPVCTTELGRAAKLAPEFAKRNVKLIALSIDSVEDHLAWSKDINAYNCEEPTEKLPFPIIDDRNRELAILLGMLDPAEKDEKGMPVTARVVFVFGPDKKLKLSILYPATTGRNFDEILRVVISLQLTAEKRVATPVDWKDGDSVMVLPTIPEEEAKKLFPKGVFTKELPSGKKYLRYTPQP

[3] = target: T2, recombinant human peroxiredoxin 6 (Prdx6) (human); remark: listed apart in the source
[4] = target: T3, mouse peroxiredoxin 6 (Prdx6), endogenous in lung homogenate (mouse (endogenous in lung)) (UniProt O08709)
T3 sequence: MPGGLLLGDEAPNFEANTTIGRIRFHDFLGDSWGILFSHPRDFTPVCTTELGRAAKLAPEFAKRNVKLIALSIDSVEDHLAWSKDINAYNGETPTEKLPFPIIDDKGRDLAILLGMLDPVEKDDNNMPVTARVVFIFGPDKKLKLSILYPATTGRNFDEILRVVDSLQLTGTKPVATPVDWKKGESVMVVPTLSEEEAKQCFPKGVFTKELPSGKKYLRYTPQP

[5] = target: T2, recombinant human peroxiredoxin 6 (Prdx6) (human); remark: listed apart in the source
[6] = target: T2, recombinant human peroxiredoxin 6 (Prdx6) (human); remark: listed apart in the source

Molecule | Activity (aiPLA2 of recombinant hPrdx6), deletion from N-term [1] [nmol/min/mg Prot.] | concentration of peptide for inhibition of aiPLA2 activity by 50% [2] [µg/mg Prdx6] | inhibition of the aiPLA2 activity of human recombinant Prdx6 in vitro against peptide concentration, up to saturating concentrations [2] [%] | molar stoichiometry of peptide to Prdx6 monomer worked out from the PIP to Prdx6 ratio at maximal inhibition of aiPLA2 activity (peptide to Prdx6 monomer, molar) [2] | further results
LYDIRHQIL [PIP-3] | – | – | – | – | Inhibition of aiPLA2 activity of human recombinant Prdx6 [1]: ~ 70%; Concentration of peptide for inhibition of aiPLA2 activity by 50% ([1]; recombinant human Prdx6): ~ 10 µg/mg Prdx6
LYEIKHQIL [PIP-1] | 32.3 | – | – | – | Inhibition of aiPLA2 activity at saturating concentrations of peptide ([1]; recombinant human Prdx6, Figure 2, mean + SEM, n = 3): ~ 70%; Concentration of peptide for inhibition of aiPLA2 activity by 50% ([1]; recombinant human Prdx6): ~ 8.3 µg/mg Prdx6
QTELYEIKHQIL [12-aa N-terminal deletion of rat 16-aa peptide] | 31.5 | – | – | – | –
TLHDFRHQI [9-aa human peptide with C-terminal aa deleted] | – | – | – | – | Activity (aiPLA2 of recombinant hPrdx6), human-derived peptides [1]: 89.6 nmol/min/mg Prot.
TLHDFRHQIL [10-aa N-terminal deletion of human 16-aa peptide] | – | – | – | – | Activity (aiPLA2 of recombinant hPrdx6), human-derived peptides [1]: 31.5 nmol/min/mg Prot.
YEIKHQIL [8-aa N-terminal deletion of rat 16-aa peptide] | 94.4 | – | – | – | –
LHDFRHQIL [PLA2-inhibitory peptide 2 (PIP-2), human SP-A nine-aa peptide] | – | 6.6 | 70 | 1.5 | aiPLA2 activity of recombinant hPrdx6 with the peptide (no peptide: 92.0) (nmol/min/mg Prot.) [3]: 29.9; inhibition of PLA2 activity at pH 4 without Ca2+ (aiPLA2) of wild type mouse lung homogenate after addition of PIP-2 to the assay [4]: 91%
LYDIRHQIL [PLA2-inhibitory peptide 3 (PIP-3), hybrid of PIP-1 and PIP-2] | – | 10 | 70 | 1.5 | inhibition of aiPLA2 activity by the hybrid nine-aa peptide [5]: 70%
LYEIKHQIL [PLA2-inhibitory peptide 1 (PIP-1), rat/mouse SP-A nine-aa peptide] | – | 8.3 | 70 | 1.5 | aiPLA2 activity of recombinant hPrdx6 with the peptide (no peptide: 94.8; scrambled peptide: 93.5) (nmol/min/mg Prot.) [6]: 32.3
